Experimental findings from patent US20150344570A1 (published 2015) are described below.

To fix the notation:
T1: FcγRIIa R (human, UniProt P12318 34-217)
T1 construct: extracellular domain; also called FcgRIIa R type; 2aR
T1 sequence (looked up): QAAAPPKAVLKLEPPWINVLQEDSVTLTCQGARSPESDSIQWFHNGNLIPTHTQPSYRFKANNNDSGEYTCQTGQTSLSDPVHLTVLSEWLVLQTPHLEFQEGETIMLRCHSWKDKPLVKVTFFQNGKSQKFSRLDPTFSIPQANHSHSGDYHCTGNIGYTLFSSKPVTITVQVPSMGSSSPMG

B1: GpH7-A5/GpH7-B3 variant L234_09D/GpL16-k0 (antibody, human IgG1, kappa)
heavy 1: not shown
heavy 2: not shown
light: DIVMTQSPLSLPVTPGEPASISCQASESLVHSNRNTYLHWYLQKPGQSPQLLIYKVSNRFSGVPDRFSGSGSGTDFTLKISRVEAEDVGVYYCSQNTHVPPTFGQGTKVEIERTVAAPSVFIFPPSDEQLKSGTASVVCLLNNFYPREAKVQWKVDNALQSGNSQESVTEQDSKDSTYSLSSTLTLSKADYEKHKVYACEVTHQGLSSPVTKSFNRGEC
notes: also called He Ab L234_09D
B2: GpH7-A5/GpH7-B3 variant L234_10E/GpL16-k0 (antibody, human IgG1, kappa)
heavy 1: not shown
heavy 2: not shown
light: DIVMTQSPLSLPVTPGEPASISCQASESLVHSNRNTYLHWYLQKPGQSPQLLIYKVSNRFSGVPDRFSGSGSGTDFTLKISRVEAEDVGVYYCSQNTHVPPTFGQGTKVEIERTVAAPSVFIFPPSDEQLKSGTASVVCLLNNFYPREAKVQWKVDNALQSGNSQESVTEQDSKDSTYSLSSTLTLSKADYEKHKVYACEVTHQGLSSPVTKSFNRGEC
notes: also called He Ab L234_10E
B3: GpH7-A5/GpH7-B3 variant L234_20W/GpL16-k0 (antibody, human IgG1, kappa)
heavy 1: not shown
heavy 2: not shown
light: DIVMTQSPLSLPVTPGEPASISCQASESLVHSNRNTYLHWYLQKPGQSPQLLIYKVSNRFSGVPDRFSGSGSGTDFTLKISRVEAEDVGVYYCSQNTHVPPTFGQGTKVEIERTVAAPSVFIFPPSDEQLKSGTASVVCLLNNFYPREAKVQWKVDNALQSGNSQESVTEQDSKDSTYSLSSTLTLSKADYEKHKVYACEVTHQGLSSPVTKSFNRGEC
notes: also called He Ab L234_20W
B4: GpH7-A5/GpH7-B3 variant N325_03V/GpL16-k0 (antibody, human IgG1, kappa)
heavy 1: not shown
heavy 2: not shown
light: DIVMTQSPLSLPVTPGEPASISCQASESLVHSNRNTYLHWYLQKPGQSPQLLIYKVSNRFSGVPDRFSGSGSGTDFTLKISRVEAEDVGVYYCSQNTHVPPTFGQGTKVEIERTVAAPSVFIFPPSDEQLKSGTASVVCLLNNFYPREAKVQWKVDNALQSGNSQESVTEQDSKDSTYSLSSTLTLSKADYEKHKVYACEVTHQGLSSPVTKSFNRGEC
notes: also called He Ab N325_03V
B5: GpH7-A5/GpH7-B3 variant L328_09D/GpL16-k0 (antibody, human IgG1, kappa)
heavy 1: not shown
heavy 2: not shown
light: DIVMTQSPLSLPVTPGEPASISCQASESLVHSNRNTYLHWYLQKPGQSPQLLIYKVSNRFSGVPDRFSGSGSGTDFTLKISRVEAEDVGVYYCSQNTHVPPTFGQGTKVEIERTVAAPSVFIFPPSDEQLKSGTASVVCLLNNFYPREAKVQWKVDNALQSGNSQESVTEQDSKDSTYSLSSTLTLSKADYEKHKVYACEVTHQGLSSPVTKSFNRGEC
notes: also called He Ab L328_09D
B6: GpH7-A5/GpH7-B3 variant L328_13S/GpL16-k0 (antibody, human IgG1, kappa)
heavy 1: not shown
heavy 2: not shown
light: DIVMTQSPLSLPVTPGEPASISCQASESLVHSNRNTYLHWYLQKPGQSPQLLIYKVSNRFSGVPDRFSGSGSGTDFTLKISRVEAEDVGVYYCSQNTHVPPTFGQGTKVEIERTVAAPSVFIFPPSDEQLKSGTASVVCLLNNFYPREAKVQWKVDNALQSGNSQESVTEQDSKDSTYSLSSTLTLSKADYEKHKVYACEVTHQGLSSPVTKSFNRGEC
notes: also called He Ab L328_13S
B7: GpH7-A5/GpH7-B3 variant N325_04F/GpL16-k0 (antibody, human IgG1, kappa)
heavy 1: not shown
heavy 2: not shown
light: DIVMTQSPLSLPVTPGEPASISCQASESLVHSNRNTYLHWYLQKPGQSPQLLIYKVSNRFSGVPDRFSGSGSGTDFTLKISRVEAEDVGVYYCSQNTHVPPTFGQGTKVEIERTVAAPSVFIFPPSDEQLKSGTASVVCLLNNFYPREAKVQWKVDNALQSGNSQESVTEQDSKDSTYSLSSTLTLSKADYEKHKVYACEVTHQGLSSPVTKSFNRGEC
notes: also called He Ab N325_04F
B8: GpH7-A5/GpH7-B3 variant N325_07I/GpL16-k0 (antibody, human IgG1, kappa)
heavy 1: not shown
heavy 2: not shown
light: DIVMTQSPLSLPVTPGEPASISCQASESLVHSNRNTYLHWYLQKPGQSPQLLIYKVSNRFSGVPDRFSGSGSGTDFTLKISRVEAEDVGVYYCSQNTHVPPTFGQGTKVEIERTVAAPSVFIFPPSDEQLKSGTASVVCLLNNFYPREAKVQWKVDNALQSGNSQESVTEQDSKDSTYSLSSTLTLSKADYEKHKVYACEVTHQGLSSPVTKSFNRGEC
notes: also called He Ab N325_07I
B9: GpH7-A5/GpH7-B3 variant L328_02A/GpL16-k0 (antibody, human IgG1, kappa)
heavy 1: not shown
heavy 2: not shown
light: DIVMTQSPLSLPVTPGEPASISCQASESLVHSNRNTYLHWYLQKPGQSPQLLIYKVSNRFSGVPDRFSGSGSGTDFTLKISRVEAEDVGVYYCSQNTHVPPTFGQGTKVEIERTVAAPSVFIFPPSDEQLKSGTASVVCLLNNFYPREAKVQWKVDNALQSGNSQESVTEQDSKDSTYSLSSTLTLSKADYEKHKVYACEVTHQGLSSPVTKSFNRGEC
notes: also called He Ab L328_02A
B10: GpH7-A5/GpH7-B3 variant L235_04F/GpL16-k0 (antibody, human IgG1, kappa)
heavy 1: not shown
heavy 2: not shown
light: DIVMTQSPLSLPVTPGEPASISCQASESLVHSNRNTYLHWYLQKPGQSPQLLIYKVSNRFSGVPDRFSGSGSGTDFTLKISRVEAEDVGVYYCSQNTHVPPTFGQGTKVEIERTVAAPSVFIFPPSDEQLKSGTASVVCLLNNFYPREAKVQWKVDNALQSGNSQESVTEQDSKDSTYSLSSTLTLSKADYEKHKVYACEVTHQGLSSPVTKSFNRGEC
notes: also called He Ab L235_04F
B11: GpH7-A5/GpH7-B3 variant L235_20W/GpL16-k0 (antibody, human IgG1, kappa)
heavy 1: not shown
heavy 2: not shown
light: DIVMTQSPLSLPVTPGEPASISCQASESLVHSNRNTYLHWYLQKPGQSPQLLIYKVSNRFSGVPDRFSGSGSGTDFTLKISRVEAEDVGVYYCSQNTHVPPTFGQGTKVEIERTVAAPSVFIFPPSDEQLKSGTASVVCLLNNFYPREAKVQWKVDNALQSGNSQESVTEQDSKDSTYSLSSTLTLSKADYEKHKVYACEVTHQGLSSPVTKSFNRGEC
notes: also called He Ab L235_20W
B12: GpH7-A5/GpH7-B3 variant N325_06M/GpL16-k0 (antibody, human IgG1, kappa)
heavy 1: not shown
heavy 2: not shown
light: DIVMTQSPLSLPVTPGEPASISCQASESLVHSNRNTYLHWYLQKPGQSPQLLIYKVSNRFSGVPDRFSGSGSGTDFTLKISRVEAEDVGVYYCSQNTHVPPTFGQGTKVEIERTVAAPSVFIFPPSDEQLKSGTASVVCLLNNFYPREAKVQWKVDNALQSGNSQESVTEQDSKDSTYSLSSTLTLSKADYEKHKVYACEVTHQGLSSPVTKSFNRGEC
notes: also called He Ab N325_06M
B13: GpH7-A5/GpH7-B3 variant L328_10E/GpL16-k0 (antibody, human IgG1, kappa)
heavy 1: not shown
heavy 2: not shown
light: DIVMTQSPLSLPVTPGEPASISCQASESLVHSNRNTYLHWYLQKPGQSPQLLIYKVSNRFSGVPDRFSGSGSGTDFTLKISRVEAEDVGVYYCSQNTHVPPTFGQGTKVEIERTVAAPSVFIFPPSDEQLKSGTASVVCLLNNFYPREAKVQWKVDNALQSGNSQESVTEQDSKDSTYSLSSTLTLSKADYEKHKVYACEVTHQGLSSPVTKSFNRGEC
notes: also called He Ab L328_10E
B14: GpH7-A5/GpH7-B3 variant L235_09D/GpL16-k0 (antibody, human IgG1, kappa)
heavy 1: not shown
heavy 2: not shown
light: DIVMTQSPLSLPVTPGEPASISCQASESLVHSNRNTYLHWYLQKPGQSPQLLIYKVSNRFSGVPDRFSGSGSGTDFTLKISRVEAEDVGVYYCSQNTHVPPTFGQGTKVEIERTVAAPSVFIFPPSDEQLKSGTASVVCLLNNFYPREAKVQWKVDNALQSGNSQESVTEQDSKDSTYSLSSTLTLSKADYEKHKVYACEVTHQGLSSPVTKSFNRGEC
notes: also called He Ab L235_09D
B15: GpH7-A5/GpH7-B3 variant L235_15Y/GpL16-k0 (antibody, human IgG1, kappa)
heavy 1: not shown
heavy 2: not shown
light: DIVMTQSPLSLPVTPGEPASISCQASESLVHSNRNTYLHWYLQKPGQSPQLLIYKVSNRFSGVPDRFSGSGSGTDFTLKISRVEAEDVGVYYCSQNTHVPPTFGQGTKVEIERTVAAPSVFIFPPSDEQLKSGTASVVCLLNNFYPREAKVQWKVDNALQSGNSQESVTEQDSKDSTYSLSSTLTLSKADYEKHKVYACEVTHQGLSSPVTKSFNRGEC
notes: also called He Ab L235_15Y
B16: GpH7-A5/GpH7-B3 variant L328_14T/GpL16-k0 (antibody, human IgG1, kappa)
heavy 1: not shown
heavy 2: not shown
light: DIVMTQSPLSLPVTPGEPASISCQASESLVHSNRNTYLHWYLQKPGQSPQLLIYKVSNRFSGVPDRFSGSGSGTDFTLKISRVEAEDVGVYYCSQNTHVPPTFGQGTKVEIERTVAAPSVFIFPPSDEQLKSGTASVVCLLNNFYPREAKVQWKVDNALQSGNSQESVTEQDSKDSTYSLSSTLTLSKADYEKHKVYACEVTHQGLSSPVTKSFNRGEC
notes: also called He Ab L328_14T

The target in this test is T1, FcγRIIa R. Briefly: SPR (Biacore), captured antibody, FcγR as analyte; relative binding activity.
Regarding B1, the He/Con_2aR is 122 % (GpH7-A5/GpH7-B3/GpL16-k0 = 100).

With B2, the He/Con_2aR was 112 % (GpH7-A5/GpH7-B3/GpL16-k0 = 100). On to B3, for which the He/Con_2aR was 108 % (GpH7-A5/GpH7-B3/GpL16-k0 = 100). B4: the He/Con_2aR was 108 % (GpH7-A5/GpH7-B3/GpL16-k0 = 100). Turning to B5, the He/Con_2aR was 119 % (GpH7-A5/GpH7-B3/GpL16-k0 = 100). With B6 the figure was 117 % (GpH7-A5/GpH7-B3/GpL16-k0 = 100); with B7, 120 % (GpH7-A5/GpH7-B3/GpL16-k0 = 100); with B8, 133 % (GpH7-A5/GpH7-B3/GpL16-k0 = 100). In the case of B9, the He/Con_2aR was 117 % (GpH7-A5/GpH7-B3/GpL16-k0 = 100). Turning to B10, the He/Con_2aR is 114 % (GpH7-A5/GpH7-B3/GpL16-k0 = 100). For B11, the He/Con_2aR was 131 % (GpH7-A5/GpH7-B3/GpL16-k0 = 100). As for B12, the He/Con_2aR is 152 % (GpH7-A5/GpH7-B3/GpL16-k0 = 100). Turning to B13, the He/Con_2aR was 105 % (GpH7-A5/GpH7-B3/GpL16-k0 = 100).

Turning to B14, the He/Con_2aR was 101 % (GpH7-A5/GpH7-B3/GpL16-k0 = 100).

On to B15, for which the He/Con_2aR is 129 % (GpH7-A5/GpH7-B3/GpL16-k0 = 100). With B16, the He/Con_2aR is 119 % (GpH7-A5/GpH7-B3/GpL16-k0 = 100).
